In patent US20030026781A1, “Compositions and methods for regulating endogenous inhibitor of ATP synthase, including treatment for diabetes” (MitoKor, priority 1999, published 2003):

Molecular target: mitochondrial ATP synthase (ETC Complex V) ATPase in rat liver submitochondrial particles (SMP) (rat) (UniProt P15999)
Assay: cell-based or functional assay

rat IF1 (from UniProt Q03344 26-107)
IC50 at pH 6.5, inhibition of oligomycin-sensitive ATPase in rat liver SMP: 0.19 µM
IC50 at pH 7.25, inhibition of oligomycin-sensitive ATPase in rat liver SMP: 0.42 µM
IC50 at pH 8, inhibition of oligomycin-sensitive ATPase in rat liver SMP: > 0.8 µM
